According to US20210024646A1 (published 2021):
Where “and” joins values, the source holds several entries; their conditions need not be identical. Equal values may be shown once. Read-outs that look alike come from different tables or passages of the source.

T1: CD73 on the surface of human tumor cells (human, UniProt P21589 27-549)
T1 chain: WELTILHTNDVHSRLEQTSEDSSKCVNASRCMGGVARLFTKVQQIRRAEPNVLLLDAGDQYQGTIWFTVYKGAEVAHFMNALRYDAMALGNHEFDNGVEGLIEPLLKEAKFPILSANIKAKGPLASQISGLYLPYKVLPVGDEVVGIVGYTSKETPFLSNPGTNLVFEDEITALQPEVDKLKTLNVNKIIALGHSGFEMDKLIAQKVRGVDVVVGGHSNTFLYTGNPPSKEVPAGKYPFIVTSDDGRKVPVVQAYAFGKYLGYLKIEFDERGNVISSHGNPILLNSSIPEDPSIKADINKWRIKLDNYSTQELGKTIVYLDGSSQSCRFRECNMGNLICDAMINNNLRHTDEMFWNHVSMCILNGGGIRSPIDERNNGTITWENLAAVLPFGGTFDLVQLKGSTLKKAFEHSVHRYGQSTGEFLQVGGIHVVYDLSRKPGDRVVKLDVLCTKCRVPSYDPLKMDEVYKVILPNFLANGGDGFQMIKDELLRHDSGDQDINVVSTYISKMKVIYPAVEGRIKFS

T2: extracellular domain of human CD73 protein (CD73-ECD), C-terminus polyhistidine-tagged (UniProt P21589 27-547)
T2 chain: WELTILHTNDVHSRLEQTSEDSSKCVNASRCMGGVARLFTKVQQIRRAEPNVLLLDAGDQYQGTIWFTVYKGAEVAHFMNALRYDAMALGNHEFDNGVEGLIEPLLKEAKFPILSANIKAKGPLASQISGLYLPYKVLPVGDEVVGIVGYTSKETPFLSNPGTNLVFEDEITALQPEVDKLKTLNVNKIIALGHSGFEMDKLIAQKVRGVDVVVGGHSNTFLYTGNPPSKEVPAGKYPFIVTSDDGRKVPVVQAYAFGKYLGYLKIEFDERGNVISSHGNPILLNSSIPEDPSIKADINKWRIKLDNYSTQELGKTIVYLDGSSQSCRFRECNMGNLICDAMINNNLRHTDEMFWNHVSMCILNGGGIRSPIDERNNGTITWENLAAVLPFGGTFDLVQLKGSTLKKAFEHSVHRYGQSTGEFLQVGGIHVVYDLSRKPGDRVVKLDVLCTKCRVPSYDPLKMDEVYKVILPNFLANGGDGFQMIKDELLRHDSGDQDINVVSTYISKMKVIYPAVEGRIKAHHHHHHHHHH

T3: Carbon-terminal polyhistidine-labeled recombinant cynomolgus monkey CD73 enzyme (cynomolgus monkey, UniProt A0A2K5V5U7 1-547)
T3 chain: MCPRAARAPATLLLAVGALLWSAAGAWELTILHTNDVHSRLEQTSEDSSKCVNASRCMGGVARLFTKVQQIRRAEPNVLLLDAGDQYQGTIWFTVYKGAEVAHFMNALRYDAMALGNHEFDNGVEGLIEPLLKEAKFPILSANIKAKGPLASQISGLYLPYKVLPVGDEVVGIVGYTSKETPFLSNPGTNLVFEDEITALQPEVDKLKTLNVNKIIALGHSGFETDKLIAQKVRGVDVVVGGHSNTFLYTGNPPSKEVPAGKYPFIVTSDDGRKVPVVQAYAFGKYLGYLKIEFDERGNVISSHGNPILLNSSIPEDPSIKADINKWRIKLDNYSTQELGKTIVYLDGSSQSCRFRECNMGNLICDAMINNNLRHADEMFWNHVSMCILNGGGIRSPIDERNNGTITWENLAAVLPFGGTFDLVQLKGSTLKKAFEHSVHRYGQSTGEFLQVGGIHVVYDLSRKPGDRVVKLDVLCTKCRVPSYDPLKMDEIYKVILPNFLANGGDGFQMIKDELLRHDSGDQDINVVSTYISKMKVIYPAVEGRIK


What was measured:
[1] = molecular target: T1, CD73 on the surface of human tumor cells; assay: FACS; MDA-MB-231 cells
[2] = molecular target: T2, extracellular domain of human CD73 …; assay: enzyme inhibition; left table
[3] = molecular target: T3, Carbon-terminal polyhistidine-labeled …; assay: enzyme inhibition; left table
[4] = molecular target: T2, extracellular domain of human CD73 …; assay: enzyme inhibition; right table
[5] = molecular target: T3, Carbon-terminal polyhistidine-labeled …; assay: enzyme inhibition; right table
[6] = molecular target: T1, CD73 on the surface of human tumor cells; assay: FACS; NCI-H1299 cells, left table
[7] = molecular target: T1, CD73 on the surface of human tumor cells; assay: FACS; NCI-H1299 cells, right table
[8] = molecular target: T1, CD73 on the surface of human tumor cells; assay: FACS; MDA-MB-231 cells, left table
[9] = molecular target: T1, CD73 on the surface of human tumor cells; assay: FACS; MDA-MB-231 cells, right table
[10] = molecular target: T1, CD73 on the surface of human tumor cells; assay: inhibition of cell-surface CD73 enzyme activity; left panel
[11] = molecular target: T1, CD73 on the surface of human tumor cells; assay: inhibition of cell-surface CD73 enzyme activity; right panel
[12] = molecular target: T1, CD73 on the surface of human tumor cells; assay: FACS; NCI-H1299 cells, left table
[13] = molecular target: T1, CD73 on the surface of human tumor cells; assay: FACS; MDA-MB-231 cells, left table
[14] = molecular target: T1, CD73 on the surface of human tumor cells; assay: FACS; MDA-MB-231 cells, right table
[15] = molecular target: T2, extracellular domain of human CD73 …; assay: ELISA
[16] = molecular target: T2, extracellular domain of human CD73 …; assay: ELISA
[17] = molecular target: T1, CD73 on the surface of human tumor cells; assay: FACS; NCI-H1299 cells, right table

| Binder | EC50 [1] [nM] | IC50 [2] [nM] | IC50 [3] [nM] | IC50 [4] [nM] | IC50 [5] [nM] | EC50 [6] [nM] | EC50 [7] [nM] | EC50 [8] [nM] | EC50 [9] [nM] | IC50 [10] [nM] | IC50 [11] [nM] | EC50 [12] [nM] | EC50 [13] [nM] | EC50 [14] [nM] | EC50 [15] | EC50 [16] [nM] | EC50 [17] [nM] |
| --- | --- | --- | --- | --- | --- | --- | --- | --- | --- | --- | --- | --- | --- | --- | --- | --- | --- |
| mAb002c (antibody, V domains shown) VH: QVQLQQPGAELVKPGASVRLSCKASGYTLTSYWMHWVKKRPGQGLEWIGEINPSNGRSNYNEKFKSKATLTVDRSSSTVYMQLGSLTSEDSAVYYCARRGVSGNYFDYWGQGTTLTVSS VL: DIKMTQSPSSMYASLGERVTMTCKASQDINTYLSWFQQKPGKSPKTLIYRSNILVDGVPSRFSGSRSGQDYYLTITSLEYEDMGIYYCLQYDEFPYTFGGGTKLELK | 0.544 | 0.037 | 0.039 | 0.038 | 0.039 | 0.658 | 0.53 | 0.466 | 0.466 | 0.317 | 0.363 | – | – | – | – | – | – |
| mAb001c (antibody, V domains shown) VH: QVQLQQSGPELVKPGASVRISCKTSGYTFTNYYIYWVKQRPGQGLEWIGWIYPGNLNIKYNEKFKGKSTLTADKSSSTAFMQLSSLTSEDSAVYFCARDDNYAWFAYWGQGTLVTVSS VL: DIVMTQSHKFMSTSIGDRVSITCKASQDVSTAVAWYQQKPGQSPKLLIYWTNTRHTGVPDRFTGNTSGTEHTLTISSVQAEDLALYYCQQHYSTPFTFGSGTTLEIK | 1.19 | 0.03 | 0.04 | 0.02 | 0.04 | – | – | – | – | – | – | 1.48 | 0.45 | 0.618 | – | – | – |
| mAb001c-VK-SGS (antibody, V domains shown) VH: QVQLQQSGPELVKPGASVRISCKTSGYTFTNYYIYWVKQRPGQGLEWIGWIYPGNLNIKYNEKFKGKSTLTADKSSSTAFMQLSSLTSEDSAVYFCARDDNYAWFAYWGQGTLVTVSS VL: DIVMTQSHKFMSTSIGDRVSITCKASQDVSTAVAWYQQKPGQSPKLLIYWTNTRHTGVPDRFTGSGSGTEHTLTISSVQAEDLALYYCQQHYSTPFTFGSGTTLEIK | – | – | – | – | – | – | – | – | – | – | – | 1.62 | – | – | 0.099 nM and 0.054 nM | 0.073 | 1.65 |
